{"source": "patent US20070207967A1", "about": "“Peptide Inhibitors of Matrix Metalloproteinase Activity” (CTT CANCER TARGETING TECHNOLOGIES OY, priority 2004, published 2007)", "biological_target": "125I-labelled MMP-9 C domain (UniProt P14780)", "sequence (P14780 513-707 limits assumed, form in doubt)": "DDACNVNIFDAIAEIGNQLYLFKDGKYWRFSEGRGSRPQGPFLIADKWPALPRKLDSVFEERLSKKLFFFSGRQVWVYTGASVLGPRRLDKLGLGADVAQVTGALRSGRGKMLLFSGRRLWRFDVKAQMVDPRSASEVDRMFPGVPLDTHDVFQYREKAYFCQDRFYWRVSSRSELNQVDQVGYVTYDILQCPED", "assay": "phage-binding assay, 125I-labelled against unlabelled MMP-9 C domain", "note": "Ends that are not written are not given here.", "data": [{"binder": "CRVYGPYLLC (cysteine pairing not given here; also: displayed on phage as coat protein fusion)", "note": "[CRV phage (… displayed on phage)]", "values": [{"measurement": "% of CRV peptide-binding activity retained after 125I-labelling", "result": 40, "unit": "%"}]}]}
